T1: recombinant human BCMA-his fusion protein (ACRO Biosystem, Cat. No. BCA-H522y) (human, UniProt Q02223 1-54)
T1 construct: extracellular domain; Bought protein; also called huBCMA-his; hu BCMA-his; not shown: His tag
T1 sequence (looked up): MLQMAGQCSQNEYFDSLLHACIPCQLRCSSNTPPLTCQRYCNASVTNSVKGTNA

B1: human-mouse chimeric antibody c-mAb3 (antibody, human IgG1, V domains shown)
VH: EVQLQQSGPELVKPGASVKILCKASGYTITDYNMDWVKRSHGKSLEWIGNINPHNGGSIYNQKFKGKATLTVDKSSSTAFMELRSLTSEDTAVYYCARGDATLVLDYWGQGTSLTVSS
VL: DIVLTQSPASLAVSLGQRATISCRASKSVSTSGLSYMHWYQQKPGQPPKVLIYLASNLESGVPARFSGSGSGTDFTLNIHPVEEEDAATYYCQHSRELPPTFGAGTKLELK
notes: not shown: human IgG1 heavy chain constant region, GenBank No. AK303185.1; human kappa light chain constant region, GenBank No. MG815648.1
B2: human-mouse chimeric antibody c-mAb2 (antibody, human IgG1, V domains shown)
VH: QVQLQQSDAELVKPGTSVKISCKVSGYTFTDHTIHWMKQRPEQGLEWIGYIYPRNGNTKYNEKFKGKATLTADKSSSTAYMHLNSLTSEDSAVYFCARYDYDGYFDVWGTGTTVTVSS
VL: DVVMTQTPLSLPVSLGDQASISCRSSQSHVHSDGHTYLHWYLQKPGQSPELLIYKVSNRFSGVPDRFSGSGSGTDFTLKISRVEAEDLGVYFCSQNTHFPWTFGGGTKLEIK
notes: as for B1

What was measured:
[1] = molecular target: T1, recombinant human BCMA-his fusion …; assay: competitive ELISA, coated huBCMA-his, competitor 83A10-biotin
Method: (§1) The 96-well microplate was treated with 100 μL of 0.5 μg/mL huBCMA-his in PBS and incubated overnight at 4° C. The plate was then washed thrice with PBS washing buffer containing 0.1% of Tween-20 and blocked with 300 μL of PBS containing 1% of BSA for 2 h. 100 μL of each BCMA antibody was added to the plate. […] The plate was incubated at 37° C. for 1 h, and unbound secondary antibody was washed with PBS washing buffer containing 0.1% of Tween-20. The TMB chromogenic solution was added at 100 μL/well. After a 5-min reaction at room temperature, 2 M H₂SO₄ was added at 100 μL/well to terminate the reaction. The microplate was placed on a microplate reader (Molecular Devices, SPECTRA Max plus 384) and the absorbance OD450 value was read at 450 nm wavelength.

[2] = molecular target: T1, recombinant human BCMA-his fusion …; assay: competitive ELISA: huBCMA-his coated, varied antibody added first, then APRIL-biotin, streptavidin-peroxidase, OD450; blocked ligand APRIL
Method: as §1

[3] = molecular target: T1, recombinant human BCMA-his fusion …; assay: ELISA, coated antigen
Method: Procedures: huBCMA-his and cynoBCMA-his antigens were prepared into 0.5 μg/mL coating solutions with PBS (pH 7.4). The coating solutions were added to a microplate at 100 μL/well and incubated at 4° C. overnight. The residual coating solution was discarded before 3% BSA was added at 300 μL/well, and the plate was blocked for 3 h at room temperature. The microplate was washed once with PB ST at 300 The stock humanized monoclonal antibody solutions were serially 3-fold diluted to the 11th concentration. The dilutions were added to the microplate at 100 μL/well. After a 1-h incubation at room temperature, the microplate was washed thrice with PBST at 300 The HRP-conjugated 6*His, His-Tag antibody was 25,000-fold diluted with 1% BSA-PBST and added at 100 After another 1-h incubation at room temperature, the microplate was washed thrice with PB ST at 300 μL/well and dried. The TMB chromogenic solution was added at 100 μL. After a 5-min reaction at room temperature, 2 M H2504 was added at 100 μL/well to terminate the reaction. The microplate was placed on a microplate reader (Molecular Devices, SPECTRA Max plus 384) and the absorbance OD450 value was read at 450 nm wavelength.

[4] = molecular target: T2, recombinant cynomolgus monkey cynoBCMA-his (ACRO Biosystem, Cat. No. BCA-052H7) (cynomolgus monkey, UniProt A0A2K5UD97 1-53); assay: competitive ELISA, coated cynoBCMA-his, competitor 83A10-biotin
T2 construct: extracellular domain; Bought protein; also called cynomolgus/rhesus macaque BCMA/TNFRSF17 protein; not shown: His tag
T2 sequence (A0A2K5UD97 entry or part of it): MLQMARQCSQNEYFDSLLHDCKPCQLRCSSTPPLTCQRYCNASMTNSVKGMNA

[5] = molecular target: T1, recombinant human BCMA-his fusion …; assay: competitive ELISA, coated huBCMA-his, competitor APRIL-biotin
Method: as §1

[6] = molecular target: T2, recombinant cynomolgus monkey …; assay: SPR (Biacore T200), anti-His capture on CM5, 1:1 fit
[7] = molecular target: T3, cynomolgus monkey BCMA on HEK293 cynoBCMA cells (cynomolgus monkey, UniProt A0A2K5UD97 1-183); assay: flow cytometry on HEK293 cynoBCMA cells
T3 construct: whole, on cells
T3 sequence (A0A2K5UD97 entry or part of it): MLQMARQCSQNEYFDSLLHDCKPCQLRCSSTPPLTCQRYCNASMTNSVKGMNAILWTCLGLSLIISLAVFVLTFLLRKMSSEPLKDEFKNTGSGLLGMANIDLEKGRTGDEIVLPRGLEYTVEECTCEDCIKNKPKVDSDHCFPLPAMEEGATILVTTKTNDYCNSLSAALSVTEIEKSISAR
Method: Procedures: Preparation of cell suspensions: The cells were resuspended in PBS, and the cell density was adjusted to 2×10⁵ cells/well. Mouse antibodies were added to a 96-well plate at […] and serially 3-fold diluted from 3000 nM. The plate was incubated for 1 h at 4° C. 150 μL of precooled PBS containing 1% of FBS was added into the 96-well plate after the co-incubation with the primary antibody was finished. The mixtures were centrifuged at 300×g for 5 min and the supernatants were discarded. The above procedures were repeated once. The fluorescent secondary antibody PE […] (Biolegend, 409304) was added at 80 μL/well. The plate was incubated at 4° C. for 30 min. 150 μL of precooled PBS containing 1% of FBS was added into the 96-well plate after the co-incubation with the secondary antibody was finished. The mixtures were uniformly mixed with a pipette. The 96-well plate was centrifuged at 300×g for 5 min in a plate centrifuge and the supernatants were removed. The above procedures were repeated once. The cells were resuspended in 100 μL of PBS containing 1% of FBS and detected on a flow cytometry (BD Accuri™ C6).

[8] = molecular target: T1, recombinant human BCMA-his fusion …; assay: competitive ELISA, coated huBCMA-his, competitor 83A10-biotin, antibody at 7 µg/mL

| Binder | IC50 [1] [µg/mL] | IC50 (read off the curve) [2] [µg/mL] | EC50 [3] [nM] | IC50 [4] [µg/mL] | IC50 [5] [µg/mL] | Kd [6] [nM] | koff [6] [s⁻¹] | kon [6] [M⁻¹ s⁻¹] | EC50 [7] [nM] | competition [8] [%] |
| --- | --- | --- | --- | --- | --- | --- | --- | --- | --- | --- |
| B1 | 1 | ~0.4 | 0.0155 | 1.05 | > 12 | 0.106 | 0.000373 | 3.54e+06 | 2.66 | – |
| B2 | 8 | – | 0.0257 | – | 0.0108 | – | – | – | – | 40 |

Source: patent publication US20240117061A1 (WUHAN YZY BIOPHARMA, published 2024)
